Measured values taken from US20150125477A1 (IMMATICS BIOTECHNOLOGIES, published 2015).

Target: T1, A*0201 (biotinylated pMHC monomer from UV-induced MHC ligand exchange) (human, biotin)
T1 construct: pMHC complexes for aAPC loading and multimer read-out
Assay: pMHC complex from UV-induced MHC ligand exchange, used as control
Procedure: Generation of pMHC/anti-CD28 coated beads, T-cell stimulations and readout was performed in a highly defined in vitro system using four different pMHC molecules per stimulation condition and 8 different pMHC molecules per readout condition. […] In order to determine the amount of pMHC monomer obtained by exchange we performed streptavidin-based sandwich ELISAs according to (Rodenko et al., 2006). The purified co-stimulatory mouse IgG2a anti human CD28 Ab 9.3 (Jung et al., 1987) was chemically biotinylated using Sulfo-N-hydroxysuccinimidobiotin as recommended by the manufacturer (Perbio, Bonn, Germany). Beads used were 5.6 μm diameter streptavidin coated polystyrene particles (Bangs Laboratories, Illinois, USA).
Half of the medium was then exchanged by fresh TCM supplemented with 80 U/ml IL-2 and incubating was continued for 3-4 days at 37° C. […] Finally, multimeric analyses were performed by staining the cells with Live/dead near IR dye (Invitrogen, Karlsruhe, Germany), CD8-FITC antibody clone SK1 (BD, Heidelberg, Germany) and fluorescent pMHC multimers. For analysis, a BD LSRII SORP cytometer equipped with appropriate lasers and filters was used. Peptide specific cells were calculated as percentage of total CD8+ cells. Evaluation of multimeric analysis was done using the FlowJo software (Tree Star, Oregon, USA).

YLLPAIVHI (control for low immunogenic stimulation) [DDX5-001]: binds.
